Reference: patent US5726243

What was measured:
[1] = molecular target: K1735 M4 tumor cells (melanoma cells); test: adhesion of 3H-thymidine-labelled K1735 M4 cells to peptide-coated Immulon plates, 1 h at 37 °C
[2] = molecular target: K1735 M4 tumor cells (melanoma cells); test: adhesion of 3H-thymidine-labelled K1735 M4 cells to peptide-coated Immulon plates, 1 h at 37 °C; one mole of SSP counted as three chains

Molecule	peptide concentration at half maximal melanoma cell adhesion [1] [µM]	peptide concentration at half maximal melanoma cell adhesion [2] [µM]
THP-2, branched triple-helical polypeptide incorporating residues 1263-1277 from α1(IV) collagen	1.12	
THP-3, branched triple-helical polypeptide of (Gly-Pro-Hyp)8	> 100	
GVKGDKGNPGWPGAP [single-stranded peptide (SSP) incorporating residues 1263-1277 from the α1 chain of type IV collagen]		170
